Drawing on paper PMC7993993, this text covers His6-PomZ ATPase activity (NADH-coupled assay, 1 mM ATP, 32°C) with DNA, PomX^NPEP peptide up to 15 µM, 4 µM His6-PomZ for one molecule.

The target in this assay is T1, His6-PomZ (M. xanthus) (UniProt Q1DEM0).
T1 sequence: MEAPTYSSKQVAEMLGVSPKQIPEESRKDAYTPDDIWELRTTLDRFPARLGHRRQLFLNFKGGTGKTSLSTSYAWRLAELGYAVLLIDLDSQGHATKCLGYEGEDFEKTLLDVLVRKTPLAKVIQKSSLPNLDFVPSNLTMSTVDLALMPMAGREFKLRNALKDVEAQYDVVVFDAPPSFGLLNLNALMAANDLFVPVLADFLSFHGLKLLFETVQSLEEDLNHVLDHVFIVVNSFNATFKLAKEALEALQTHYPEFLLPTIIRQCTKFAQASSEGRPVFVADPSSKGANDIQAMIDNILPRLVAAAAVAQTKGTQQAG

As to MKKAFEQNVSRAKPRLRLGALT [PomX^NPEP peptide], the His6-PomZ ATPase activity (NADH-coupled assay, 1 mM ATP, 32°C) with DNA, PomX^NPEP peptide up to 15 µM, 4 µM His6-PomZ amounted to 27 ATP hr^−1.
